Reference: US20210270842A1 (DYAX, published 2021)

B1: 559B-M0017-H08 (Fab, V domains shown)
VH: EVQLLESGGGLVQPGGSLRLSCAASGFTFSPYWMHWVRQAPGKGLEWVSVISPSGGGTGYADSVKGRFTISRDNSKNTLYLQMNSLRAEDTAVYYCARESRGSGSHEDYWGQGTLVTVSS
VL: DIQMTQSPATLSLSPGERATLSCRASQSVSSYLAWYQQKPGQAPRLLIYGASNRGTGIPARFSGSGSGTEFTLTISSLQSEDFAVYFCQQYKNWPNLTFGGGTKVDIK
B2: 559B-M0039-G07 (Fab, V domains shown)
VH: EVQLLESGGGLVQPGGSLRLSCAASGFTFSRYRMRWVRQAPGKGLEWVSGISPSGGWTYYADSVKGRFTISRDNSKNTLYLQMNSLRAEDTAVYYCTTDNGDYALAHWGQGTLVTVSS
VL: DIQMTQSPSSLSASVGDRVTITCRASQRIINYLNWYQQKPGKAPKLLIYAASSLQSGVPSRFSGSGSGTDFTLTISSLQPEDFATYYCQQSYSAPLTFGGGTRVEIK
B3: 559B-M0003-A08 (Fab, V domains shown)
VH: EVQLLESGGGLVQPGGSLRLSCAASGFTFSAYVMRWVRQAPGKGLEWVSSIGSSGGPTYYADSVKGRFTISRDNSKNTLYLQMNSLRAEDTAVYYCARRGGSGSSHAFDIWGQGTMVTVSS
VL: DIQMTQSPSSLSASVGDRVTITCRASQSISSYLNWYQQKPGKAPKLLIYAASSLQSGVPSRFSGSGSGTDFTLTISSLQPEDSGTYYCQQYNSFPLTFGGGTKVEIK
B4: 559B-M0061-G06 (Fab, V domains shown)
VH: EVQLLESGGGLVQPGGSLRLSCAASGFTFSKYTMWWVRQAPGKGLEWVSVISSSGGKTYYADSVKGRFTISRDNSKNTLYLQMNSLRAEDTAVYYCARTANRAFDIWGQGTMVTVSS
VL: DIQMTQSPAALSVSPGERATLSCRASQSVSSDLAWYQQKPGQAPRLLIHGASTRATGIPARFSGSGSGREFTLTISSLQSEDFAVYYCQQYNDWPPLFGPGTKVNIK
B5: 559B-M0068-D01 (Fab, V domains shown)
VH: EVQLLESGGGLVQPGGSLRLSCAASGFTFSIYPMSWVRQAPGKGLEWVSGISPSGGKTAYADSVKGRFTISRDNSKNTLYLQMNSLRAEDTAVYYCARGQGRAVRGKLYYYGMDVWGQGTTVTVSS
VL: QSALTQPPSASQTPGQTVTISCSGSSSNIGTNNVNWYQQLPGTAPKLLISSHHRRPSGVPDRFSASKSGTSASLAISGLQSEDEADYYCAAWDDSLNGPVFGGGTKLTVL
B6: 559B-M0054-B11 (Fab, V domains shown)
VH: EVQLLESGGGLVQPGGSLRLSCAASGFTFSYYGMNWVRQAPGKGLEWVSVISPSGGLTVYADSVKGRFTISRDNSKNTLYLQMNSLRAEDTAMYYCATGFAVQHGGGAFDIWGQGTMVTVSS
VL: DIQMTQSPATLSMSPGERATLSCRASQSVTTYLAWYQQKPGQAPRLLIYDASIRATGVPARFSGSGSGTDFTLTISRLEPEDFAVYYCQQRTIWPLTFGGGTKVEIK
B7: 559B-M0068-C07 (Fab, V domains shown)
VH: EVQLLESGGGLVQPGGSLRLSCAASGFTFSSYQMHWVRQAPGKGLEWVSGIYSSGGSTPYADSVKGRFTISRDNSKNTLYLQMNSLRAEDTAVYYCARGHHGMDVWGQGTTVTVSS
VL: DIQMTQSPSSVSASVGDRVTITCRASQGISSWLAWYQQKPGKAPKLLIYAASNLQSGVPSRFSGSGSGTDFTLTISSLQPEDFATYYCQKYNIAPYTFGQGTKLEIK
B8: 559B-X0004-B05 (Fab, V domains shown)
VH: EVQLLESGGGLVQPGGSLRLSCAASGFTFHYRMMWVRQAPGKGLEWVSYISSSGGYTAYADSVKGRFTISRDNSKNTLYLQMNSLRAEDTAVYYCAAKRNRAFDIWGQGTMVTVSS
VL: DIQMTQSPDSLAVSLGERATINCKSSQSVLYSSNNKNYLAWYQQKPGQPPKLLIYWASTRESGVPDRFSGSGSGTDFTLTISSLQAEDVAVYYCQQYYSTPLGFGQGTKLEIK
B9: 559B-M0039-D08 (Fab, V domains shown)
VH: EVQLLESGGGLVQPGGSLRLSCAASGFTFSNYAMQWVRQAPGKGLEWVSWIYSSGGPTYYADSVKGRFTISRDNSKNTLYLQMNSLRAEDTAVYYCARGLPGQPFDYWGQGTLVTVSS
VL: QSELTQPPSASGTPGQRVTISCSGSSSNIGNNYVYWYQQFPGTAPKLLIYRNNQRPSGVPDRFSGSKSGTSASLAISGLRSEDEADYYCATWDDRLSGWVFGGGTKLTVL
B10: 559B-M0021-G11 (Fab, V domains shown)
VH: EVQLLESGGGLVQPGGSLRLSCAASGFTFSPYPMTWVRQAPGKGLEWVSGISSSGGFTPYADSVKGRFTISRDNSKNTLYLQMNSLRAEDTAVYYCARMVRGVIKAFDIWGQGTMVTVSS
VL: QYELTQPPSASGTPGQRVTISCSGSSSNIGSHYVFWYQQLPGAAPKLLIYRNNQRPSGVPDRFSGSKSGTSASLAISGLRSEDEADYYCATWDNSLSAWVFGGGTKLTVL
B11: 559B-M0038-H03 (Fab, V domains shown)
VH: EVQLLESGGGLVQPGGSLRLSCAASGFTFSKYDMHWVRQAPGKGLEWVSRISSSGGKTEYADSVKGRFTISRDNSKNTLYLQMNSLRAEDTAVYYCAREYRYCTANTCSLYGMDVWGRGTTVTVSS
VL: DIQMTQSPSSLSASVGDRVAITCRTSQGVRSDFAWYQQTPGKAPRRLIYAAFILDNGVPSRFSGSGSGTEFTLTISSLQPEDFATYYCQQSYSTPLTFGGGTKVEMK
B12: 559B-M0048-D12 (Fab, V domains shown)
VH: EVQLLESGGGLVQPGGSLRLSCAASGFTFSRYQMTWVRQAPGKGLEWVSSIGSSGGFTNYADSVKGRFTISRDNSKNTLYLQMNSLRAEDTAVYYCARLPANFYYYMDVWGKGTTVTVSS
VL: DIQMTQSPSSLSASVGDRVTITCRASQNIYSFLNWYQQKPGKAPKLLIYATSSLQSGVPSRFSGSGSGTDFTLTISSLQPEDFASYYCQQNYNIPWTFGQGTKVEIK
B13: 559B-M0035-H09 (Fab, V domains shown)
VH: EVQLLESGGGLVQPGGSLRLSCAASGFTFSWYGMHWVRQAPGKGLEWVSRIGPSGGPTSYADSVKGRFTISRDNSKNTLYLQMNSLRAEDTAVYYCARGYYGTGRYFQHWGQGTLVTVSS
VL: DIQMTQSPDSLSLSPGDRATLSCRASQSVGSDYLAWYQQKPGQAPRLLIYDASNRATGIPARFSGSGSGTDFTLTISSLEPEDFAVYYCQQRSNWPPTFGGGTKVEIK
B14: 559B-M0067-G11 (Fab, V domains shown)
VH: EVQLLESGGGLVQPGGSLRLSCAASGFTFSPYEMVWVRQAPGKGLEWVSSIVPSGGWTVYADSVKGRFTISRDNSKNTLYLQMNSLRAEDTAVYYCASPSGRGLAFDIWGQGTMVTVSS
VL: DIQMTQSPGTLSLSPGERATLSCRASQSISSSYLAWYQQKPGQAPRLLIYGASSRATGVPDRFSGSGSGTEFTLTISSLQPEDFATYYCLQQKSYPYTFGQGTKVEIK
B15: 559B-M0035-F05 (Fab, V domains shown)
VH: EVQLLESGGGLVQPGGSLRLSCAASGFTFSHYPMAWVRQAPGKGLEWVSGIVSSGGRTVYADSVKGRFTISRDNSKNTLYLQMNSLRAEDTAVYYCARDPYDFWSEGAFDIWGQGTMVTVSS
VL: QSVLTQPPSASGTPGQRVTISCSGSSSNIGNNFVYWYHQVPGTAPKLLIYKNNQRPSGVPDRFSGSKSAASASLAISGLRSEDEADYYCAAWDNSLSGFYVFGAGTKVTVL
B16: 559B-M0042-E06 (Fab, V domains shown)
VH: EVQLLESGGGLVQPGGSLRLSCAASGFTFSMYKMSWVRQAPGKGLEWVSVISPSGGRTYYADSVKGRFTISRDNSKNTLYLQMNSLRAEDTAVYYCARGTRTSGLDYWGQGTLVTVSS
VL: QSALTQPASVSGSPGQSITISCTGTSSDVGGYKYVSWYQQHPGKAPKLVIYEVSNRPSGVSNRFSGSKSGNTASLTISGLQAEDEADYYCSSYTSSTTVVFGGGTKLTVL
B17: 559B-M0043-C06 (Fab, V domains shown)
VH: EVQLLESGGGLVQPGGSLRLSCAASGFTFSAYAMRWVRQAPGKGLEWVSYISSSGGETMYADSVKGRFTISRDNSKNTLYLQMNSLRAEDTAVYYCANGYGRIDYWGQGTLVTVSS
VL: QSVLTQPASVSGSPGQSITISCTGTSSDIGGYNYVSWYQQHPGKAPKLMIYEVSNRPSGVSNRFSGSKSGNTASLTISGLQAEDEADYYCSSYTSGSTRVFGTGTRVTVL
B18: 559B-M0036-G12 (Fab, V domains shown)
VH: EVQLLESGGGLVQPGGSLRLSCAASGFTFSRYYMAWVRQAPGKGLEWVSGIVPSGGQTGYADSVKGRFTISRDNSKNTLYLQMNSLRAEDTAVYYCARTRRGWFGEDYYYYMDVWGKGTLVTVSS
VL: DIQMTQSPGTLSLSPGERATVSCRASQSVGSTYLAWYQHKPGQAPRLLIYGASSRATGIPDRFSGSGSGTDFTLTISSLEPEDFAIYYCQHFHTSPPGITFGQGTRLEIK

target: T1, intact high molecular weight kininogen (HMWK) (Homo sapiens, UniProt P01042 19-644); assay: ELISA: Fab coated on 96-well plate, LowCross block, biotinylated antigen, streptavidin-HRP; signal over uncoated well
T1 construct: also called intact HMWK; 1-chain HMWK
T1 sequence: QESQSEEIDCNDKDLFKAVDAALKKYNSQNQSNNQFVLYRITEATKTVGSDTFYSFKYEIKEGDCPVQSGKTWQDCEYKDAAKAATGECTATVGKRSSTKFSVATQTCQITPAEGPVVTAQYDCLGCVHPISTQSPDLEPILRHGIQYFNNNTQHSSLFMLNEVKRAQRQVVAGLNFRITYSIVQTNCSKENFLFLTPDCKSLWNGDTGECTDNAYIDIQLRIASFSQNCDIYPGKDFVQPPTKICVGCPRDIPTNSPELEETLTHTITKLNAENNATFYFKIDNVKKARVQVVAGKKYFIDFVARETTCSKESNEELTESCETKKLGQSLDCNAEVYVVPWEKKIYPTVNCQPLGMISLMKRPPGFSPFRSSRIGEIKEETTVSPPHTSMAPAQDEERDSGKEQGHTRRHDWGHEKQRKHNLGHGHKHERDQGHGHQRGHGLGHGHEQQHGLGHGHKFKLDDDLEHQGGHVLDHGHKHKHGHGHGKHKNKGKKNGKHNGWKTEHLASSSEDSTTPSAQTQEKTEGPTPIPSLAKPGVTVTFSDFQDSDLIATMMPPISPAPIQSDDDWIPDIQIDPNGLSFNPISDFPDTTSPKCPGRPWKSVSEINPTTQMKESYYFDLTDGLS
Description: Thirty-six purified Fab clones (see Table 2 below) were assessed for binding to cleaved HWMK, intact HMWK, and LWMK using the immunoassay described in Example 1. Specifically, each of the purified Fab clones was immobilized on 96-well assay plates at a concentration of […]) in a total volume of 100 μL in PBS and incubated overnight at 2-8° C. The assay plates were blocked using LowCross blocking buffer. Biotinylated intact HMWK, biotinylated cleaved HMWK or biotinylated LMWK ([…]) was added to each well in a total volume of 100 μL and incubated for 2 hours prior to washing with a wash buffer. HRP-labeled streptavidin was added to each well at a concentration of 100 ng/mL, and the signal was developed using Ultra TMB Substrate. The signal to noise ratio was calculated using the signal observed upon the addition of the biotinylated protein to an uncoated well. (FIG. 2, panels A and B). Based on the ELISA results, the antibodies can be divided among 5 categories (Table 2).

Binding result, binds:
B1
B2
B3
B4
B5
B6
B7
B8
B9
B10
B11
B12
B13
B14
B15
B16
B17
B18
